Test results as given in PMC10659949 (Protein Science : A Publication of the Protein Society, 2023).

Tests used:
Details in all cases: both partners purified
[1] = target: T1, biotinylated α-bungarotoxin from Bungarus multicinctus (Bungarus multicinctus, UniProt P60615); test: BLI
T1 construct: source: bought: Latoxan (purified, from B. multicinctus), then biotinylated

[2] = target: T2, biotinylated α-cobratoxin from Naja kaouthia (Naja kaouthia, UniProt P01391, biotin (1:1.25 toxin: biotin reagent molar ratio; site not stated)); test: BLI; […]) in HEPES-MES buffer pH 7.4; dissociation in HEPES-MES pH 7.4; 1:1 binding model, global fit; […]
T2 construct: source: bought: Latoxan (purified, from N. kaouthia), then biotinylated
T2 sequence (P01391 whole entry): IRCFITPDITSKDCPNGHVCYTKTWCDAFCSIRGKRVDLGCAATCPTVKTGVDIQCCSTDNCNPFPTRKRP

[3] = target: T2, biotinylated α-cobratoxin from Naja …; test: BLI; […]; dissociation in HEPES-MES pH 5.5; 1:1 binding model, global fit; […]

T1 sequence (P60615 22-95): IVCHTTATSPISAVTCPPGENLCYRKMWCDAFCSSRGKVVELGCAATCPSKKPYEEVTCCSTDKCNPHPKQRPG

B1: Fab TPL0197_01_C08 (Fab, V domains shown)
VH: EVQLVQSGAEVKKPGASVKVSCKASGYTFTSYGISWVRQAPGQGLEWMGWISAYNGNTNYAQKLQGRVTMTTDTSTSTAYMELRSLRSDDTAVYYCAREEYCSSTSCYVGNYYGMDVWGQGTLVTVSS
VL: DIQMTQSPSSLSASVGDRVTITCQASQDISNYLNWYQQKPGKAPKLLIYAASSLESGVPSRFSGSGSGTEFTLTITNLQVDDFATYYCQRYDSNFAFGQGTKVEIK
notes: also called Fab C08; source: ExpiCHO cells, purified (Ni-NTA / HisTrap Excel, desalting)
[1]
  binding result: no binding (tested: 300 nM)
[2]
  Kd: 44.8 nM
  koff: 0.00076 s⁻¹
[3]
  koff: 0.00535 s⁻¹
